Source: patent publication JP2015180231A

Target: RSV融合(F)タンパク質 (RSV fusion (F) protein), on RSV-infected HEp2 cells (respiratory syncytial virus (RSV)) (UniProt P03420)
Test: cell-based or functional assay

Sequence of UniProt P03420 (P03420 26-574): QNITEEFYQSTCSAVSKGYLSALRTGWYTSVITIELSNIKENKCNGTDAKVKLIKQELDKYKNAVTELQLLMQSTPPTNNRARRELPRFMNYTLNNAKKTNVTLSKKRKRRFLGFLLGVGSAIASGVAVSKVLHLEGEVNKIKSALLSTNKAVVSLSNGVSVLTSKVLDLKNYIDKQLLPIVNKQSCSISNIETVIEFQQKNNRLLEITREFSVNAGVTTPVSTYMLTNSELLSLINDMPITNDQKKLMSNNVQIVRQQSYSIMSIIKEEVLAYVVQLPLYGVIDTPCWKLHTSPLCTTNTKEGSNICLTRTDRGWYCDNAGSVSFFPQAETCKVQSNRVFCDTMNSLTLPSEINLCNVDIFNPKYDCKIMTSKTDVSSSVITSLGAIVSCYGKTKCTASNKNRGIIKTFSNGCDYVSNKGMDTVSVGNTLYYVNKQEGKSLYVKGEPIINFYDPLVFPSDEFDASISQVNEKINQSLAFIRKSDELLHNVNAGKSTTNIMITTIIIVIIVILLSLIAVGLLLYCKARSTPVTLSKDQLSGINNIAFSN

In the case of “抗RSV抗体D25 (anti-RSV monoclonal antibody D25)”, the RSV-A2ウイルスに対して最大活性の半分を阻害する濃度(IC50) (microneutralisation) is reported as 2.1 ng/mL.
